Measured values from US20230357364A1 (INTERNATIONAL AIDS VACCINE INITIATIVE, published 2023).
Where two headings read alike, the source gives them in different places.

Legend:
[1] = target: T1, SARS-CoV-1 spike on pseudovirus (SARS-CoV-1, UniProt P59594 14-1255); assay: cell-based or functional assay
[2] = target: T1, SARS-CoV-1 spike on pseudovirus; assay: cell-based or functional assay; remark: listed apart in the source
[3] = target: T2, SARS-CoV-2 spike on pseudovirus or live virus (USA-WA1/2020, WT) (SARS-CoV-2, UniProt P0DTC2 14-1273); assay: cell-based or functional assay
SARS-CoV-2 RBD (RBD-2) [4] = target: SARS-CoV-2 RBD (RBD-2) (SARS-CoV-2); assay: SPR, Fc-captured IgG
[5] = target: T2, SARS-CoV-2 spike on pseudovirus or live …; assay: cell-based or functional assay; remark: listed apart in the source
SARS-CoV-1 RBD (RBD-1) = SARS-CoV-1 RBD (RBD-1) (SARS-CoV-1); assay: ELISA
SARS-CoV-2 RBD (RBD-2) [6] = target: SARS-CoV-2 RBD (RBD-2) (SARS-CoV-2); assay: ELISA
SARS-CoV-2 RBD (RBD-2) [7] = target: SARS-CoV-2 RBD (RBD-2) (SARS-CoV-2); assay: flow, HeLa-ACE2, mAb:RBD=2:1
SARS-CoV-2 RBD (RBD-2) [8] = target: SARS-CoV-2 RBD (RBD-2) (SARS-CoV-2); assay: flow, HeLa-ACE2, mAb:RBD=4:1

Binder	PSV neutralization IC50 [1] [µg/mL]	PSV neutralization IC50 [2] [µg/mL]	Maximum Plateau of Neutralization [3] [%]	PSV neutralization IC50 [3] [µg/mL]	Kd (SARS-CoV-2 RBD (RBD-2) [4]) [nM]	koff (SARS-CoV-2 RBD (RBD-2) [4]) [s⁻¹]	kon (SARS-CoV-2 RBD (RBD-2) [4]) [M⁻¹ s⁻¹]	PSV neutralization IC50 [5] [µg/mL]	EC50 (SARS-CoV-1 RBD (RBD-1)) [µg/mL]	EC50 (SARS-CoV-2 RBD (RBD-2) [6]) [µg/mL]	% inhibition of RBD binding to hACE2 (SARS-CoV-2 RBD (RBD-2) [7]) [%]	MFI (RBD binding to cell surface) (SARS-CoV-2 RBD (RBD-2) [7])	% inhibition of RBD binding to hACE2 (SARS-CoV-2 RBD (RBD-2) [8]) [%]	MFI (RBD binding to cell surface) (SARS-CoV-2 RBD (RBD-2) [8])
L12.bP11A06 (antibody, V domains shown) VH: EVQLVESGGGLIQPGGSLRLSCAASGLTVSSNYMSWVRQAPGKGLEWVSVIYSGGSTFYADSVKGRFTISRDNSKNTLYLQMNSLRAEDTAVYYCARDLDVYGLDVWGQGTTVTVSS VL: DIVMTQSPSFLSASVGDRVTITCRASQGISSYLAWYQQKPGKAPKLLIYAASTLQSGVPSRFSGSGSGTEFTLTISSLQPEDFATYYCQQLNSYPPKFTFGPGTKVEIK	> 50	> 50	100	0.019	–	–	–	–	–	–	–	–	–	–
L12.bP12E05 (antibody, V domains shown, human IgG1) VH: EVQLVQSGAEVKKPGASVKVTCKTSGYIFSGYYMHWVRQVPGQGLEWMGWISPDSGATNYAQKFQGRVTMTRDTSITTSYVELTWLKSDDTAVYYCARGPRYSGTYFDFWGQGTLVTVSS VL: QAVVTQPASVSGSPGQSLTISCTGTSSDIGGFNYVSWYQQHPGKAPKLMIFDVSKRPSGVPNRFSGSKSGNTASLTISGLQAEDEGDYYCSSYTISSAQVFGGGTKLTVL	> 50	> 50	89	0.255	183	0.143	782000	0.075	> 50	1.17	–	–	–	–
L6.dP02F01 (antibody, V domains shown, human IgG1) VH: EVQLVESGGGLVQPGRSLRLSCAASGFTFDDYAMHWVRQAPGKGLEWVSGISWNSGSIAFAGSVKGRFTISRDNAKNSLYLQMNSLRAEDTALYYCAKDQGYSYGNYFDYWGQGTLVTVSS VL: QLVLTQPPSVSVAPGKTARITCGGNNIGSKSVYWYQQKPGQAPVLVVYDDSDRPSGIPERFSGSNSGNTATLTISRVEAGDEADYYCQVWDSSSDHPYVFGSGTKVTVL	–	5.56	99	1.09	–	–	–	–	0.021	0.013	–	–	–	–
L6.dP02A05 (antibody, V domains shown, human IgG1) VH: EVQLVQSGAEVKKPGASVKVSCMASGYTFTSYYMHWVRQAPGQGLEWMGIISPSGGGTSYAQKFQGRVTLTRDTSTSTVYMELSSLRSEDTAVYYCARWYDSTGSIDYWGQGTLVTVSS VL: DIVMTQSPSSLSASVGDRVTITCRASQGIRNDLGWYQQKPGKAPKRLIYAASSLQSGVPSRFSGSGSGTEFTLTISSLQPEDFATYYCLQHNSYPILTFGGGTKVEIK	–	> 50	100	0.059	–	–	–	–	> 50	0.025	–	–	–	–
L25.dP06E11 (antibody, V domains shown, human IgG1) VH: QVQLVESGGGLVQPGRSLRLSCAASGFTFDDYAMHWVRQAPGKGLEWVSGISWNSGSIGYADSVKGRFTISRDNAKNSLYLQMNGLRAEDTALYYCAKVPQRSRYLVGWFDPWGQGTLVTVSS VL: not shown	–	> 50	55	34.6	–	–	–	–	0.017	0.016	–	–	–	–
L12.cP08A09 (antibody, V domains shown, human IgG1) VH: QVQLVQSGAEVKKPGASVKVSCKASGYIYSGYYMHWVRQAPGQGLEWMGWISPDSGGTNYAQRFQGRVTMTRDTSTTTAYMELSRLRSDDTAVYYCARGPRYSGTYFDYWGQGTLVTVSS VL: QSALTQPASVSGSPGQSITISCTGTSSDVGGYNYVSWYQQHPDKAPKLMIYDVSNRPSGVSNRFSGSKSGNTASLTISGLQAEDEADYYCSSYTSGSTQVFGGGTKLTVL	> 50	> 50	99	1.5	175	0.0707	404000	0.382	> 50	0.666	39.4	6800	49	5740
L25.eP04C02 (antibody, V domains shown, human IgG1) VH: not shown VL: QSVLTQPASVSGSPGQSITISCTGTSSDVGGYNYVSWYQQHPGKAPKLMIYDVSNRPSGVSNRFSGSKSGNTASLTISGLQAEDEADYYCSSYTSSSTVVFGGGTKLTVL	–	> 50	100	0.155	–	–	–	–	> 50	0.026	–	–	–	–
L12.bP11C10 (antibody, V domains shown, human IgG1) VH: QVQLVQSGAEVKKPGASVKVSCKASGYIFSGYYMHWVRQAPGQGLEWMGWISPDSGGTNYAQKFQGRVTMTRDTSITTGYMELSGLRSDDTAVYYCARGPRYSGTYFDYWGQGTLVTISS VL: QSALTQPTSVSGSPGQSITISCTGTSSDVGGYNYVSWYQQHPGKAPKLIIYDVSNRPSGVSNRFSGSKSGNTASLTISGLQAEDEADYYCSSYTVSSTQVFGGGTKLTVL	> 50	> 50	100	0.494	255	0.126	493000	0.092	> 50	3.12	38.5	6900	54.1	5170
L12.bP10G07 (antibody, V domains shown, human IgG1) VH: EVQLVQSGAEVKKPGASVKVSCKASGYIYSGYYMHWVRQAPGQGLEWMGWISPDSGGTNYAQRFQGRVTMTRDTSTTTAYMELSRLRSDDTAMYYCARGPRYSGTYFDYWGQGTLVTVSS VL: QTVVTQPASVSGSPGQSITISCTGTSSDVGGYNYVSWYQQHPDKAPKLIIYDVSNRPSGVSNRFSGSKSGNTASLTISGLQAEDEAAYYCSSYTSSSTQVFGGGTKLTVL	–	> 50	100	0.328	220	0.0961	436000	0.865	> 50	1.41	36.6	7120	49.2	5710
L12.cP09D03 (antibody, V domains shown, human IgG1) VH: QVQLVQSGAEVKKPGASVKVSCKASGYIFSGYYTHWVRQAPGQGLEWMGWISPDSGGTNYAQKFQGRVTMTRDTSITTAYVELSGLRSDDTAVYYCARGPRYSGTYFDYWGQGTLVTVSS VL: QSVLTQPASVSGSPGQSITISCTGTSSDVGGYNYVSWYQQHPGKVPKLMIYDVSNRPSGVSNRFSGSKSGNTASLTISGLQAEDEADYYCSSYTSSSAQLFGGGTKLTVL	> 50	> 50	85	0.135	147	0.0843	575000	0.351	> 50	–	40.9	6640	50.1	5620
